# Assay: soluble on expression in E. coli; label from the status in PepcDB or PDB records
row,Sequence,soluble on expression in E. coli
1,MKNIKMPVLVLAAEKDHITPPESVTAFFEKIPSKDKKLLLSDKGHIGLTVSGSSHRKIWPEAIKWVVERSK,not soluble
2,MKNIVSAFGIIPRNNRLMYIHSYQSYVWNTMVSRRIEEYGLRPVPGDLVLKGATPTYIEEDDVDNYSIHDVVMPLPGFDVIYPKHKISEAYREMLAADNLDIDNMRHTIRDYSLSGAYRRIIIRPQSVSWEVVAYDDPKIPLFNTDVDNLEGKPPPVFASEGKYRALKMDFSLPPSTYATMAIREVLKMDTSIKNQTQLNTSWLR,not soluble
3,MKNMLPAYIKIHDQIKKDIDEYRWAIGERLPSERDLAEQFAVSRMTLRQAVSLLVEEGVLERRVGSGTFVSSTRVQEKMRGTTSFTEIVKSQGKVPSSQLISYKKTIPNEQEVAKLGIFPTDNIIRMERVRYADQVPLVYEVASIPEKFIKDFKKEEITSHFFQTLQKHGYRIGKSQQTIYARLAKEKIAHYLEVEKGHAILGLTQVSYLEDGTAFEYVKSQYVGERFEFYLENN,not soluble
4,MKNTEIRKNIFPVGFYDDIHPDFSVNFQMNRCYTMTNDDVMLKEMREISPSIHNYEEFIEKFLELYNKALNEGHKLRAAYYLRTAEFYMTADHPQKQNYRKQFISLMQEYFNISDEQPYKVPYENGFLPAYRFTSEAPKGTIVMFGGFDSYVEEMFKMALFLKEAGYDVVFFDGPGQGSALEDYKIPMTHEWEKPVKSILDYFELDDVTLLGISLGGYLTVRAAAFEKRVHRVIADDILSNFYEVVLNTLPSQLKEKVNSLMSDGNEQEVNILFKDLMKKSLMVEWAINQGMHITGSKTPYEFLNKILLYNTSKISEKLEQDVLLMAAQEDHYIPLNQFFDQSKSLINVRSLTTRMFTRKETAQNHCQSGNLGLAFEVIANWIEQIQK,soluble
5,MKNVIACISSPRRVQSICDYAIWAVRRLGSELELLHVVEREQDAVPIADLSGGIWMGTQETLLKELAELDERRQQLAQEQGRQLLQAATERAREAGIQGLAGLARQGYLVDVLLELEDDARLFVMGQHDRPTKPSRLLPDQHLEAAVRALHRPVLVAG,not soluble
6,MKPDAHHVKQFLLRLQDDICQTLSAVDGANFVEDSWRREAGGGGRSRVLRNGGIFEQAGVNFSHVHGDAMPASATAHRPELAGRSFEAMGVSLVVHPHNPYIPTSHANVRFFIAEKPGADPVWWFGGGFDLTPYYGFEEDAVHWHRTARDLCQPFGDDVYPRYKKWCDDYFFLKHRNEQRGVGGLFFDDLNTPDFDHCFDFMQAVGNGYTRAYLPIVERRKAMVWGERERNFQLYRRGRYVEFNLVWDRGTLFGLQTGGRTESILMSMPPLVRWEYDWQPEAGSPEAALSEFIQVRDWILEHHHHHH,soluble
7,MKPHFRNTVERMYRDTFSYNFYNRPILSRRNTVWLCYEVKTKGPSRPPLDAKIFRGQVYSELKYHPEMRFFHWFSKWRKLHRDQEYEVTWYISWSPCTKCTRDMATFLAEDPKVTLTIFVARLYYFWDPDYQEALRSLCQKRDGPRATMKIMNYDEFQHCWSKFVYSQRELFEPWNNLPKYYILLHIMLGEILRHSMDPPTFTFNFNNEPWVRGRHETYLCYEVERMHNDTWVLLNQRRGFLCNQAPHKHGFLEGRHAELCFLDVIPFWKLDLDQDYRVTCFTSWSPCFSCAQEMAKFISKNKHVSLCIFTARIYDDQGRCQEGLRTLAEAGAKISIMTYSEFKHCWDTFVDHQGCPFQPWDGLDEHSQDLSGRLRAILQNQEN,soluble
8,MKPLSSQLNMKINDFYLPLLPVIGTGRLYITSKGHACHAYFREVSGHGIRFTLTYSGYEGRFWISEEQFIQWCQELFPYSESRLIPEDTIKLMILWVMQTALPEGDVSVDDVQFTMLNKDIYPVIENNNGENRLNVIILETTVQSLQYLINDNWQLVPHSNALFFDGYIVPGWTDYPVTELRVGDSLRLYHVDDSQERRCWIVINTPLATVNLSDNNLSVTDVLAADLLSALSNETVMNRIYCAIGTVHIDIHMLRNVKKDDIINSDGYHLFGGCQLIRNNTTIAYGSIVKINEDFYFTVSIVCD,soluble
9,MKPSIFRQALCVSAAAVLTTVSHSLTTPTAHAQGGTPGLMEFRWDSDRNYRKLYYFQTSSIENDRSEWYLHLRAKDRKTSIMKLTVTVPDYFDAKLRPERMTLCRTSSGSMTKRTRCLEEVPATIEVNKTQTAIEVYPDTPVPVEGDYSLRIKLFNPQGKRMYQLNALIQAPGDVPMSGYVGSWLIDMD,not soluble
10,MKPVKVGICGLGTVGGGTFNVLERNAEEIARRAGRGIEVAQIAARRPNPKCDTGATPITADIFDVACNPEIDVVVELIGGYTLAHELVLKAIENGKHVVTANKALIAVHGNEIFAKAREKGVIVAFEAAVAGGIPVIKAIREGLSANRINWLAGIINGTGNFILSEMREKGRTFPDVLAEAQALGYAEADPTFDVEGIDAAHKLTILASIAFGIPLQFDKAYTEGISKLTSADVNYADALGYRIKHLGVARRTESGFELRVHPTLIPSDRLIANVNGVMNAVMVNGDAVGSTLYYGAGAGMEPTASSVVADLVDVVRAMTSDPENRVPHLAFQPDALSDHPILPIEACESAYYLRIQAKDHPGVLAQVATILSERGINIESIMQKEAEEQDGLVPMILVTHRVIEQRINDAIAALEALEGVSGPVVRIRVEQL,soluble
11,MKQEIIIAGFGGQGVLSMGKILAYSGLMEDKEVTWMPAYGPEQRGGTANVTVIVSDERISSPILSQYDTAIILNQPSLEKFEGKIKPGGILIYDGYGIIEPPTRKDIQIYRIDAMDAANEKGMAKTFNMIVLGGLLKLRPVVSIESVIKALRKTLPERHHHLIPMNEEAIRIGMEIIK,not soluble
12,MKQFLVALTILTSSLFSFASALDIIDESFLALKEFLDQPDSGAFLSLLERARGIFIVPKYLKLGWVLGGQYGQGVLLKRDPETNTWYGPLFVKMYGLSFGPQIGFQSVSLIAVIMENVDAFAEGNITLGGSLSVAAGPLGRRLSADYNLDASVYSYSIARGFYAGFSLEGAKIDVDLDLTREYYNVYRIEPEEILRREVSGRAEKIVNLLNEKLTEEAAALEHHHHHH,not soluble
13,MKQHILVLEDANQRRTIILDEQQYSIGRHSGTSIQIHSRQASRHHATLMRKTNSKTNEECFWIIDGDLEGNKSQNGVFVNGEKRLIHELKNGDLINFGCSINALEHHHHHH,not soluble
14,MKQIAFIGLGHMGAPMATNLLKAGYLLNVFDLVQSAVDGLVAAGASAARSARDAVQGADVVISMLPASQHVEGLYLDDDGLLAHIAPGTLVLECSTIAPTSARKIHAAARERGLAMLDAPVSGGTAGAAAGTLTFMVGGDAEALEKARPLFEAMGRNIFHAGPDGAGQVAKVCNNQLLAVLMIGTAEAMALGVANGLEAKVLAEIMRRSSGGNWALEVYNPWPGVMENAPASRDYSGGFMAQLMAKDLGLAQEAAQASASSTPMGSLALSLYRLLLKQGYAERDFSVVQKLFDPTQGQ,soluble
15,MKQMNVVLIGGGTGLSVLARGLREFPIDITAIVTVADNGGSTGKIRDVMDIPAPGDIRNVIAALSDSESILTQLFQYRFGENQVDGHSLGNLVIAGMTNITNDFGHAIKELSKVLNIKGQVIPSTNASVQLNAVMEDGEIVHGETNIPKTHKKIDRVFLEPSDVEPMNEAIEALEQADLIVLGPGSLYTSVISNLCVKGISEALLRTSAPKLYVSNVMTQPGETDNYDVKEHIDALTRQVGEPFIDFVICSSESYSKDVLQRYEEKNSKPVAVHKEQLKDSGIRVLTASNLVEISNEHYVRHNTKVLSKMIYELALELTSTIRFTPSDKKKMAGDPLEHHHHHH,soluble
16,MKQRGGFLGGQLLIAMPGMNDKRFIRSVIYICAHSDAGAMGIILNQLHHIGFPELLLHLGVINSGQKKDLSEPIKKFPVRYGGPVDPSRGFVLHSDDYACEETVLVADKICFTATIDILKAISCEKGPQHALIALGYAGWKAGQLEAEISTNGWLISSTSPSFLFESDLNRKYDESLIRMGINPTYLVSEMGHA,not soluble
17,MKQTTINHSVELVGIGLHKGVPVKLVLEPLGENQGIVFYRSDLGVNLPLKPENIVDTKMATVLGKDNARISTIEHLLSAVHAYGIDNLKISVDNEEIPIMDGSALTYCMLLDEAGIKELDAPKKVMEIKQAVEIRESDKFVKIEPDSQLSLNFTIDFNHPVIAKQAHHFVFSKTAYKEQVAKARTFGFLQEVNYLRSIGLAKGGSLNNCIVLDENSILNKEGLRCEKEFVCHKILDAMGDLMVLGMPVMGKYTSFSGSHKLNSMLVKAILADAKNYEVLIAADPAKEFALQKAFALEHHHHHH,not soluble
18,MKRAPFLCKQSPDRTLEVVILAGSLAWETSRVWRKDPDREDDVPPMVLGPNELADLSNLTIIRPDTLYVRVLRTGDISEEDLLKIAVKLAHAGVQMARLMSPDGELLENWTGQLERLRQERPSDILPDHFRLDEEALWFDKLTERRDGESDVQPQRICSPLRVTAITCDSHDGSYGRLLEWHTTTGQLRRWAMPMAMLSGNGEELRRILLENGLTNISTRPALRSLLCEYISRSLPGRRVTCVEKTGWHNGVYVLPDEVIGPDGDNVILQGSHYLTGGFAQAGTLAEWQEQVAALCAGNSRLVFAVCCALAAPLLRLTGTGGGGFHLRGESTDGKTTVMKVAASVCGGTDYWHSWRATGNALEGIASRHNDALLPLDELREVDPREAGMIAYMLANGQGKGRARTDGEVRNRRHWTLLLFSTGELSLAEHTERAGERIYAGMDVRMVQIPSDTGQHGAFEQLHGFASGQQFADTLCDRVARFHGTAFRAWLAFLTHDQDASTTLARELLRRYQNALMPDNAGNQVQRIVARFALLAAAGEIATLHGITGWQKGTAYEAVQICLHAWLNERGHIANQEDEGVLAQIKRFITAHQYSRFASWDGPDRPLNMAGFRRVEKDPLTGEEHTLFFILPEGWREICRGFSPARAARLCQEAECLQPGSDGKYQSQVRLPEIGKTRVYRLTSRILSILEHHHHHH,soluble
19,MKRGKRLILPLLGTLILTSLFSCGVDRWPEYYPETGRDIWIDSVMRQEYLWYRDMPSPAAPDYFQKPEAFLKKAVASMDNGFSKIDSLLDEPIPSYGFDYTLYKVLDNDTAYNALISYVVPGSPAEEAGLQRGHWIMMMNGDYITKKVESELLQGSTRQLQIGVYKEVVGEDGEVTGGVVPIGETTMPASRSLVDKPVHRFEIIPWNGKKVGYLMYNEFKAGPTTDSQAYNDDLRRAFRDFQTGGVNEFVLDLRYNTGGSLDCAQLLCTMLAPADKMNQLLALLRYSDKRVEANQDLTFNPELIQSGANLNLSTVYVLTTNATRGAAEMVINCLNPYMKVVLIGTKTAGEYVATKPFVHPTDRFILNLVVCNVYNAEEKSDYATGFKPTYEYNEDSYLSTYLPFGNTNETLLNAALKIMSGITDK,not soluble
20,MKRILVVFLMLAIILAGCSNKGEKYQKDIDKVYKEQNQMNKIASKVQNTIKTDIKQEDSNTHVYKDGKVIVIGIQLYKDREKMYYFAYEIKDGKAEINREIDPIKYMKDHKADYEDENVEVEKDMAGDPLEHHHHHH,not soluble
21,MKRKVQVKNITIGEGRPKICVPIIGKNKKDIIKEAKELKDACLDIIEWRVDFFENVENIKEVKEVLYELRSYIHDIPLLFTFRSVVEGGEKLISRDYYTTLNKEISNTGLVDLIDVELFMGDEVIDEVVNFAHKKEVKVIISNHDFNKTPKKEEIVSRLCRMQELGADLPKIAVMPQNEKDVLVLLEATNEMFKIYADRPIITMSMSGMGVISRLCGEIFGSALTFGAAKSVSAPGQISFKELNSVLNLLHKSIN,not soluble
